Data taken from patent US20180201657A1.

Legend:
[1] = target: Aga2p-HA-eLOV-TEVcs(ENLYFQY)-FLAG displayed on yeast (UniProt P32781)
[2] = target: FLARE transcription factor component as used in cultured neurons (Neurexin-3b-derived TM, soma targe (Avena sativa)); assay: cell-based or functional assay
[3] = target: CD4-TM:CaMbp(M2):TEVcs:Gal4 (without LOV domain) (UniProt P04386); assay: cell-based or functional assay
[4] = target: CD4-TM:CaMbp(M2):eLOV:TEVcs(high affinity):Gal4 (Avena sativa); assay: cell-based or functional assay
[5] = target: CD4-TM:CaMbp(M2):LOV:TEVcs(high affinity):Gal4 (original LOV2) (Avena sativa); assay: cell-based or functional assay

CD4-TM:CaMbp(M2):eLOV:TEVcs(high affinity):Gal4 (Avena sativa), sequence (Q2QYY8 other isoform, or with tags, fused parts or gaps): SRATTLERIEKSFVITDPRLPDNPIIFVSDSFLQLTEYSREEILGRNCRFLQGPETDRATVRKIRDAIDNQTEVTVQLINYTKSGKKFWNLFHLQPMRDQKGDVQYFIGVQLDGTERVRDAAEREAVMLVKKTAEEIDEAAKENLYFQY

MBP-TEV(S219V) fusion, purified was tested, and the “anti-Flag/anti-HA staining of yeast after TEV protease treatment in the dark (FACS)” value [1] was “Evolved LOV displays superior protection of TEVcs against TEV cleavage in the dark state”.
For “FLARE protease component as used in cultured neurons (CaM-TEV) (from UniProt P04517 2038-2256)”, the S/N with versus without neuronal activity (mCherry, field stimulation with blue light, 8 minutes) [2] was 11, the light/dark S/N (mCherry reporter, cultured neurons, field stimulation, FIG. 10D) [2] was 17 and the light/dark S/N (mCherry reporter, cultured neurons, media change, FIG. 10C) [2] was 121. It also gave a mCherry signal with stimulation against light exposed/non-stimulated neurons [2] greater than 10 fold.
Substance “CaM-TEV(truncated) (from UniProt P04517 2038-2256)” has a high/low Ca^2+ S/N (reporter expression, HEK cells) [3] of 2, a high/low Ca^2+ S/N (reporter expression, HEK cells) [4] of 16 and a light/dark S/N (reporter expression, HEK cells) [4] of 23. The high/low Ca^2+ S/N (reporter expression, HEK cells) [5] was 5 and the light/dark S/N (reporter expression, HEK cells) [5] was 2.
